Assay results published in patent US20250011363A1, “OPTIMIZED SHORTENED PEPTIDE THAT BINDS TO ACETYLCHOLINE RECEPTOR, AND USE THEREOF” (SKINMED CO., LTD., priority 2021, published 2025).

Each binder was assayed against acetylcholine receptor (assay: SPR, AchR immobilized on CM5 chip, peptide at 10 uM).

Compared with RMEIK [5mer-745], RMTVK [5mer-746] is higher in Binding affinity (RU): 14 RU for the first, 26 RU for the second.

First: RMMGK [5mer-740]
Second: RNSDK [5mer-742]
The Binding affinity (RU) of the first is higher: 21 RU for the first, 11 RU for the second.

Compared with KTEAK [5mer-744], KCCKR [5mer-1038] is lower in Binding affinity (RU): 32 RU for the first, 17 RU for the second.

Going from KYAFR [5mer-743] to RDWFK [5mer-1041], the Binding affinity (RU) rises from 15 RU to 27 RU.

First: RCCAK [5mer-1042]
Second: KDCPR [5mer-739]
The Binding affinity (RU) of the first is higher: 28 RU for the first, 16 RU for the second.

Going from RDCFK [5mer-1044] to REPMK [5mer-748], the Binding affinity (RU) falls from 22 RU to 12 RU.

Going from KKSFR [5mer-1037] to KPTPR [5mer-741], the Binding affinity (RU) falls from 28 RU to 14 RU.

Compared with KTPWR [5mer-1040], KYDNK [5mer-1048] is lower in Binding affinity (RU): 17 RU for the first, 12 RU for the second.

First: RKTDK [5mer-747]
Second: KAHMR [5mer-1047]
The Binding affinity (RU) of the first is higher: 31 RU for the first, 23 RU for the second.

First: KMDEK [5mer-1045]
Second: KKDVK [5mer-1039]
The Binding affinity (RU) of the first is lower: 22 RU for the first, 32 RU for the second.

Going from KHTMR [5mer-1046] to KTPMK [5mer-738], the Binding affinity (RU) rises from 19 RU to 29 RU.

With KFEMK [5mer-1043] the Binding affinity (RU) was 15 RU.

The binders below were run against acetylcholine receptor (assay: SPR, receptor immobilized on CM5 chip, peptide 10 uM).

Going from RRRRYR [6mer-1-282] to RKRVLK [6mer-1-275], the Binding affinity (RU) rises from 121 RU to 123 RU.

Going from KKQVSK [6mer-1-273] to RRQVSK [6mer-1-271], the Binding affinity (RU) falls from 137 RU to 122 RU.

Going from KKQVSR [6mer-1-272] to RKWQTK [6mer-1-292], the Binding affinity (RU) falls from 139 RU to 122 RU.

Going from RKQIRK [6mer-1-316] to RKRYYR [6mer-1-289], the Binding affinity (RU) rises from 145 RU to 153 RU.

Compared with KRGVQR [6mer-1-322], KRGLRR [6mer-1-270] is higher in Binding affinity (RU): 146 RU for the first, 149 RU for the second.

Going from KKWVQK [6mer-1-283] to RKSIRR [6mer-1-296], the Binding affinity (RU) falls from 133 RU to 121 RU.

First: RKLISK [6mer-1-286]
Second: RRWFCK [6mer-1-313]
The Binding affinity (RU) of the first is lower: 139 RU for the first, 148 RU for the second.

First: RKQQTK [6mer-1-315]
Second: RKQLTK [6mer-1-290]
The Binding affinity (RU) of the first is lower: 128 RU for the first, 146 RU for the second.

Going from KRVQYR [6mer-1-320] to RRWLYR [6mer-1-323], the Binding affinity (RU) rises from 121 RU to 149 RU.

KKLYRR [6mer-1-294] and RKQYCK [6mer-1-303] are the same in Binding affinity (RU): 123 RU for the first, 123 RU for the second.

First: RRGQSR [6mer-1-302]
Second: KRWVQK [6mer-1-319]
The Binding affinity (RU) of the first is higher: 151 RU for the first, 123 RU for the second.

Compared with KRWYRR [6mer-1-307], KKQIRK [6mer-1-291] is lower in Binding affinity (RU): 153 RU for the first, 142 RU for the second.

Going from RRVICK [6mer-1-276] to KKVQQR [6mer-1-288], the Binding affinity (RU) rises from 128 RU to 148 RU.

Compared with KRQQTR [6mer-1-278], RKLYSR [6mer-1-304] is lower in Binding affinity (RU): 142 RU for the first, 121 RU for the second.

Compared with KKGLCR [6mer-1-277], KRSRQK [6mer-1-284] is higher in Binding affinity (RU): 141 RU for the first, 145 RU for the second.

KRLLCR [6mer-1-281] and RRSILR [6mer-1-301] are the same in Binding affinity (RU): 154 RU for the first, 154 RU for the second.

First: KKLFYR [6mer-1-306]
Second: RKRQLK [6mer-1-310]
The Binding affinity (RU) of the first is higher: 135 RU for the first, 127 RU for the second.

RKWISR [6mer-1-305] and KKGICK [6mer-1-309] are the same in Binding affinity (RU): 153 RU for the first, 153 RU for the second.

Going from RRGFSK [6mer-1-297] to RKQVRR [6mer-1-321], the Binding affinity (RU) rises from 139 RU to 154 RU.

Going from RKRVCK [6mer-1-293] to RRGYQK [6mer-1-311], the Binding affinity (RU) falls from 154 RU to 127 RU.

Going from KRQRCR [6mer-1-295] to KKLYCK [6mer-1-298], the Binding affinity (RU) falls from 148 RU to 147 RU.

Compared with KRRITR [6mer-1-308], KKSRRK [6mer-1-318] is higher in Binding affinity (RU): 135 RU for the first, 145 RU for the second.

First: RRLRYR [6mer-1-279]
Second: RRRILR [6mer-1-314]
The Binding affinity (RU) of the first is higher: 145 RU for the first, 141 RU for the second.

Going from RRWQQK [6mer-1-300] to RKRRQR [6mer-1-269], the Binding affinity (RU) falls from 148 RU to 142 RU.

Going from RKLQCK [6mer-1-280] to KRWVQR [6mer-1-285], the Binding affinity (RU) falls from 149 RU to 122 RU.

Compared with KRSFRR [6mer-1-317], KRWLSK [6mer-1-299] is lower in Binding affinity (RU): 148 RU for the first, 139 RU for the second.

Compared with KRLLYK [6mer-1-274], RKWLTR [6mer-1-287] is higher in Binding affinity (RU): 135 RU for the first, 136 RU for the second.

For KKSRQK [6mer-1-312], the Binding affinity (RU) was 151 RU.
